Read-outs that look alike come from different tables or passages of the source.
Key:
SmAP2 T40H = SmAP2 T40H (Sulfolobus solfataricus, UniProt Q980S8 1-87, T40H); assay: EMSA
SmAP2 [1] = target: T1, SmAP2 (Sulfolobus solfataricus, UniProt Q980S8 1-87); assay: MST
SmAP1 = target: T2, SmAP1 (Sulfolobus solfataricus, UniProt Q97ZQ0 1-79); assay: EMSA
T2 sequence: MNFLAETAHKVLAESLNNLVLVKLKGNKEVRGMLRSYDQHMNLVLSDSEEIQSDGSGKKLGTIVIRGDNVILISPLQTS

SmAP2 [2] = target: T1, SmAP2; assay: MST; remark: listed apart in the source
SmAP2, NT-647 labelled = SmAP2, NT-647 labelled (Sulfolobus solfataricus, UniProt Q980S8 1-87); assay: MST

| Binder | Kd (SmAP2 [2]) [nM] | Kd (SmAP2, NT-647 labelled) [nM] | further results |
| --- | --- | --- | --- |
| GGAUGGAUAUUAGGAAAUG (ssRNA) [SmAP2-cRBM, FAM] | – | – | binding result (SmAP2 T40H): no binding; Kd (SmAP2 [1]): 32.7 ± 14.4 nM; binding result (SmAP1): no binding |
| GGAUGGAUAUUAGGUACUGGG (ssRNA) [1742-RBM] | 5.9 ± 5.5 | – | – |
| GGAGAUAUAGUAGGAUAG (ssRNA) [2194-RBM] | 14.4 ± 3.3 | – | – |
| GGAUGGAUAUUAGGAAAUG (ssRNA) [SmAP2-cRBM] | – | 42.1 ± 17.8 | – |
| UUUUUUUUUUUUUUU (ssRNA) [poly(U)15] | – | 426 ± 92 | – |

Reference: paper PMC5587771
